Laboratory results reported in patent US20240043883A1 (Board of Trustees of Michigan State University, priority 2021, published 2024).
Numbering of substitutions follows the chain as printed. Names and notes keep the numbering of the source.

What was measured:
[1] = molecular target: engineered phosphite dehydrogenase PTDH (12x Opt PTDH) from Pseudomonas stutzeri, SEQ ID NO: 73 (Stutzerimonas stutzeri, UniProt O69054, A319E/A325V/C336D/D13E/E130K/E175A/E332N/I150F/I313L/L276Q/M26I/Q132R/Q137R/Q215L/R275Q/V315A/V71I); experiment: Michaelis-Menten kinetics of PTDH with sodium phosphite, reduction of NADP^+ at 340 nm; format: biochemical; settings: sodium phosphite 10-1000 μM, NADP^+ 0.3 mM; 100 mM sodium phosphate pH 8.0, 25 °C
Experimental: All assays were carried out in triplicate at 25° C. in 100 mM sodium phosphate pH 8.0 in a final volume of 200 μL, unless otherwise specified. All stock solutions were prepared in 100 mM sodium phosphate pH 8.0, unless otherwise specified. A sodium phosphite stock solution was prepared by dissolving an appropriate amount of the solid in a volumetric flask with water.
The assay contained PTDH (0.05 mg mL^−1, 10 μL of a 1 mg mL^−1 stock) and NADP^+ (0.3 mM, 10 μL of a 5 mg mL^−1 stock). The assays were initiated with the addition of sodium phosphite in varying concentrations (10-1000 μM). See. FIG. 23.

Cg10062 (E114N) = experiment: In vitro 3-HP synthesis from ACA with cofactor recycling (Cg10062 (E114N), YdfG, PTDH), HPLC and 1H NMR; format: biochemical, Corynebacterium glutamicum; settings: 100 mM ACA, 0.001-1 eq NADP+; hydration significantly faster at lower NADP+
Description: This in vitro pathway developed in this study utilizes the novel Cg10062 (E114N) hydratase-only mutant with two other enzymes, YdfG and PTDH (FIG. 1). YdfG is a NADP^+-dependent 3-hydroxy acid dehydrogenase from E. coli and has previously been used for the in vivo production of 3-HP via the β-alanine pathway. […] For our system to be applied practically, the cost of cofactor is an important consideration. NADPH is an expensive cofactor and in order for the pathway to be an efficient, cost-effective pathway, the use of sub-stoichiometric amounts of co-factor was carried out. […] The formation of 3-HP in these assays were also confirmed using ^1H NMR (FIG. 4A-C).
All stocks solutions were prepared in 100 mM sodium phosphate pH 8.0. Ethylene glycol (20% w/v) was added to all enzyme stock solutions. […] Each reaction was carried out in duplicate at 25° C. with constant slow mixing on a rocking platform. Reactions were initiated by the addition of ACA. Samples from each reaction were quenched at indicated timepoints for analysis by HPLC and ^1H NMR, as described below.
All samples (100 μL) were quenched and by addition of 5 μL of 18 M sulfuric acid. The final volume was adjusted to 500 μL using 0.01 N sulfuric acid. The samples were prepared for HPLC using Whatman Mini-UniPrep® G2 syringeless filters with a glass microfiber membrane. […]

[2] = molecular target: T1, Corynebacterium glutamicum Cg10062 variant E114N, SEQ ID NO: 62 (Corynebacterium glutamicum, UniProt Q8NU77, E115N); experiment: Michaelis-Menten kinetics of ACA hydration, coupled enzyme assay (MSAD/ADH, NADH oxidation at 340 nm)
T1 sequence (Q8NU77 with tags, fused parts or gaps E115N): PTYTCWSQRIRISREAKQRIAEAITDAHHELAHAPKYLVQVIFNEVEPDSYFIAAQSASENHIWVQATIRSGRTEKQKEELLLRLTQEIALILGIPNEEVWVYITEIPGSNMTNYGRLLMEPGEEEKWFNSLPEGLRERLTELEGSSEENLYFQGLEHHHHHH
Experimental: The amount of enzyme used in each assay was varied in order to observe measurable activity. […] The ratios of MSA and acetaldehyde formed by each enzyme was determined by the coupled enzyme assay (FIG. 13), using the differences in rates in the presence and absence of MSAD (Table 10). […] All other components used for steady-state kinetics were identical to those used in the initial screening assays.

[3] = Coupled enzyme assay (ADH, with and without MSAD): hydratase and hydratase/decarboxylase activity and product profile of Cg10062 and variants; format: biochemical
Experimental: Steady-state kinetics were carried out using a Molecular Devices SpectraMax iD3 multi-mode microplate reader and Shimadzu UV2600 spectrophotometer. All assays were carried out in triplicate at 25° C. in 100 mM sodium phosphate pH 8.0 with a final volume of 200 μL, unless otherwise specified. The reduction of acetaldehyde by NADH-dependent alcohol dehydrogenase (ADH) was monitored by following the oxidation of NADH at 340 nm (ε=6220 M^−1 cm^−1).
All stock solutions, except ADH, required for the kinetics assays used for determining hydratase and hydratase/decarboxylase activities were prepared in 100 mM sodium phosphate pH 8.0. […] Stock solutions of ADH were prepared using deionized water, as recommended by the manufacturer. […] The final pH of each assay was 8.
The amount of enzyme used in each assay was varied in order to observe measurable activity. Thus, the rates obtained from this experiment were not used directly to compare the enzyme activity. These activities were only used for establishing the product profile of each enzyme. The ratios of MSA and acetaldehyde formed by each enzyme was determined by the coupled enzyme assay (FIG. 13), using the differences in rates in the presence and absence of MSAD (Table 10). […] All other components used for steady-state kinetics were identical to those used in the initial screening assays.

[4] = previously described variants, in words; cited from earlier work
[5] = substrate: O=CCC(=O)O; experiment: purified protein, by the assay type; format: biochemical, Pseudomonas putida KT2440; settings: other: MSA generated in situ from ACA (50-10,000 μM), NADH 0.1 mg/mL, 100 mM potassium phosphate pH 8.0, 25 °C
Experimental: MmsB was characterized using the coupled enzyme assay show in FIG. 28. All assays were carried out in triplicate at 25° C. in 100 mM potassium phosphate pH 8.0, at a final volume of 1 mL. All stock solutions used for the assays were prepared in 100 mM potassium phosphate pH 8.0. […] The assay contained Cg10062 (E114N) (0.8 U), MmsB (0.001 mg mL−1, 10 μL of a 0.1 mg mL−1 stock) and NADH (0.1 mg/mL, 20 μL of a 5 mg mL−1 stock). […] All other components and methods used for steady-state kinetics were identical to those described in Example 5.

[6] = substrate: O=CCC(=O)O; experiment: purified protein, by the assay type; format: biochemical, Escherichia coli; settings: other: MSA generated in situ from ACA (10-2000 μM), NADPH 0.3 mM, 100 mM sodium phosphate pH 8.0, 25 °C
Experimental: YdfG was characterized using the coupled enzyme assay show in FIG. 19. All assays were carried out in triplicate at 25° C. in 100 mM sodium phosphate pH 8.0, in a final volume of 200 μL, unless otherwise specified. All stock solutions prepared for the assays were prepared in 100 mM sodium phosphate pH 8.0. […] The assay contained a large excess of Cg10062 (E114N) (2 U), YdfG (0.005 mg mL^−1, 10 μL of a 0.1 mg mL^−1 stock) and NADPH (0.3 mM, 10 μL of a 5 mg mL^−1 stock).

[7] = 1H NMR characterization of YdfG-catalyzed reduction of MSA; format: biochemical; settings: provided with NADPH as a cofactor
Experimental: The volume was adjusted to 680 μL with 100 mM sodium phosphate pH 8.0. The reaction was initiated with the addition of Cg10062 (E114D) (20 μL of 3 mg mL^−1 stock). ^1H NMR spectra were obtained after incubating the samples at 25° C. for 1 h. […] Resonances at δ 2.23; (t, 2H) and δ 3.58; (t, 2H) correspond to 3-hydroxypropionate.

[8] = substrate: C#CC(=O)O; experiment: purified protein, by the assay type; settings: other: ACA, 100 mM sodium phosphate pH 8.0, 25 °C
[9] = ACA 0.5 mM, pH 8, enzyme final concentration differs per variant (0.025-1.50 mg mL^−1), rates not directly comparable

engineered phosphite dehydrogenase PTDH (12x Opt PTDH) from Pseudomonas stutzeri, SEQ ID NO: 73, sequence (O69054 other isoform, or with tags, fused parts or gaps with the stated changes): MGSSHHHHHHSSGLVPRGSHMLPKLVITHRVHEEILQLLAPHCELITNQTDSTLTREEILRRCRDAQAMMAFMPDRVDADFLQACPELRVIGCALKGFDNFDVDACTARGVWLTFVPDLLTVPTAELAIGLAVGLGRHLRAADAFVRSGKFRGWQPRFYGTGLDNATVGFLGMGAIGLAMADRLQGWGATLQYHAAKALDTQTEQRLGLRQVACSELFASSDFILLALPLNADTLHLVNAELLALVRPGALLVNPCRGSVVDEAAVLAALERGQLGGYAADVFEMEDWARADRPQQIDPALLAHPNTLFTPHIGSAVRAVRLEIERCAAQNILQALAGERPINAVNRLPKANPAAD

Molecule O=[PH]([O-])[O-].[Na+].[Na+] [sodium phosphite] has a Km [1] of 778 ± 44 µM and a kcat [1] of 3.45 ± 0.06 s⁻¹.

With NADP(H) the “effect on Cg10062 (E114N) (hydration of ACA to MSA)” value (Cg10062 (E114N)) was “inhibitory effect”.

In the case of C#CC(=O)O [ACA, acetylenecarboxylic acid], the “kcat fold higher than Cg10062 (E114D)” value ([2]; ACA hydration, relative to E114D) is reported as 1.5 fold, the “kcat fold higher than Cg10062 (E114Q)” value ([2]; ACA hydration, relative to E114Q) is reported as 3 fold and the “overall catalytic efficiency relative to wild-type” value ([2]; ACA hydration, relative to wild-type Cg10062) is reported as “comparable to that of the wild-type enzyme”. The kcat ([2]; ACA, 100 mM sodium phosphate pH 8.0, 25 °C) was 1.04 ± 0.07 s⁻¹.

B1: Cg10062(E114D): Previously described Cg10062 variant with E114D mutation, SEQ ID NO: 23 and 61 (protein)
chain: PTYTCWSQRIRISREAKQRIAEAITDAHHELAHAPKYLVQVIFNEVEPDSYFIAAQSASENHIWVQATIRSGRTEKQKEELLLRLTQEIALILGIPNEEVWVYITEIPGSNMTDYGRLLMEPGEEEKWFNSLPEGLRERLTELEGSSE
modifications: Cg10062(E114D) from Corynebacterium glutamicum codon-optimized for Escherichia coli
With B1 the “Rate in the absence of MSAD” value [3, 9] was “no activity”, the “Rate in the presence of MSAD” value [3, 9] was 90 µM/min and the “Product Ratio (%) acetaldehyde” value ([3]; from Cg10062 activity in the presence and absence of MSAD, * from non-enzymatic decarboxylation of malonate semialdehyde) was <1* %. For the same molecule, the “Product Ratio (%) malonate semialdehyde” value ([3]; from Cg10062 activity in the presence and absence of MSAD, ACA substrate, pH 8.0, 25° C.) was >99%, the “activity relative to the Cg10062” value [4] was “significantly lower activity” and the “product of ACA hydration” value [4] was “MSA exclusively”.

B2: P. putida KT2440 3-hydroxyisobutyrate dehydrogenase MmsB, SEQ ID NO: 76 (Pseudomonas putida KT2440) (protein)
chain: MRIAFIGLGNMGAPMARNLIKAGHQLNLFDLNKAVLAELAELGGQISPSPKDAAANSELVITMLPAAAHVRSVYLNEDGVLAGIRPGTPTVDCSTIDPQTARDVSKAAAAKGVDMGDAPVSGGTGGAAAGTLTFMVGASTELFASLKPVLEQMGRNIVHCGEVGTGQIAKICNNLLLGISMIGVSEAMALGNALGIDTKVLAGIINSSTGRCWSSDTYNPWPGIIETAPASRGYTGGFGAELMLKDLGLATEAARQAHQPVILGAVAQQLYQAMSLRGEGGKDFSAIVEGYRKKDENLYFQGLEHHHHHH
For B2, the Km [5] was 2220 ± 192 µM, the kcat [5] was 101 ± 5 s⁻¹ and the kcat/Km [5] was 45500 ± 5900 M⁻¹ s⁻¹.

B3: E. coli 3-hydroxy acid dehydrogenase YdfG, SEQ ID NO: 75 (Escherichia coli K-12) (protein)
chain: MIVLVTGATAGFGECITRRFIQQGHKVIATGRRQERLQELKDELGDNLYIAQLDVRNRAAIEEMLASLPAEWCNIDILVNNAGLALGMEPAHKASVEDWETMIDTNNKGLVYMTRAVLPGMVERNHGHIINIGSTAGSWPYAGGNVYGATKAFVRQFSLNLRTDLHGTAVRVTDIEPGLVGGTEFSNVRFKGDDGKAEKTYQNTVALTPEDVSEAVWWVSTLPAHVNINTLEMMPVTQSYAGLNVHRQENLYFQGLEHHHHHH
With B3 the Km [6] was 137 ± 18 µM, the kcat [6] was 6.62 ± 0.43 s⁻¹ and the kcat/Km [6] was 48300 ± 7100 M⁻¹ s⁻¹.

B4: YdfG: NADP+-dependent 3-hydroxy acid dehydrogenase from E. coli, SEQ ID NO: 75 (protein)
chain: B3 chain
modifications: YdfG from Escherichia coli plus TEV protease recognition site and C-terminal His6-tag
For B4, the “conversion of malonate semialdehyde to 3-HP” value [7] was “complete conversion”.

B5: Corynebacterium glutamicum Cg10062 variant E114N, SEQ ID NO: 62 (Corynebacterium glutamicum ATCC 13032; E115N) (protein)
chain: T1 sequence (Q8NU77 with tags, fused parts or gaps E115N)
Molecule B5 has a Km [8] of 45 ± 1 µM.

B6: Corynebacterium glutamicum Cg10062, wild-type, SEQ ID NO: 59 (Corynebacterium glutamicum ATCC 13032) (protein)
chain: T1 sequence (Q8NU77 with tags, fused parts or gaps E115N) with N114E
Molecule B6 has a Km [8] of 66 ± 4 µM, a kcat [8] of 8.21 s⁻¹ and a kcat/Km [8] of 124000 M⁻¹ s⁻¹.
